Our source for the koff, kon and Kd values is patent publication US20200078441A1.

Assay [1] addresses T1, recombinant His-tagged AGO2 protein (human Argonaute 2, baculovirus-expressed) (human), Q9UKV8.
Assay [2] addresses T1, recombinant His-tagged AGO2 protein …. Description: TAT-11 peptide.
Assay [3] has the same target. Description: TAT-26 peptide.

T1 sequence (Q9UKV8 other isoform, or with tags, fused parts or gaps limits assumed): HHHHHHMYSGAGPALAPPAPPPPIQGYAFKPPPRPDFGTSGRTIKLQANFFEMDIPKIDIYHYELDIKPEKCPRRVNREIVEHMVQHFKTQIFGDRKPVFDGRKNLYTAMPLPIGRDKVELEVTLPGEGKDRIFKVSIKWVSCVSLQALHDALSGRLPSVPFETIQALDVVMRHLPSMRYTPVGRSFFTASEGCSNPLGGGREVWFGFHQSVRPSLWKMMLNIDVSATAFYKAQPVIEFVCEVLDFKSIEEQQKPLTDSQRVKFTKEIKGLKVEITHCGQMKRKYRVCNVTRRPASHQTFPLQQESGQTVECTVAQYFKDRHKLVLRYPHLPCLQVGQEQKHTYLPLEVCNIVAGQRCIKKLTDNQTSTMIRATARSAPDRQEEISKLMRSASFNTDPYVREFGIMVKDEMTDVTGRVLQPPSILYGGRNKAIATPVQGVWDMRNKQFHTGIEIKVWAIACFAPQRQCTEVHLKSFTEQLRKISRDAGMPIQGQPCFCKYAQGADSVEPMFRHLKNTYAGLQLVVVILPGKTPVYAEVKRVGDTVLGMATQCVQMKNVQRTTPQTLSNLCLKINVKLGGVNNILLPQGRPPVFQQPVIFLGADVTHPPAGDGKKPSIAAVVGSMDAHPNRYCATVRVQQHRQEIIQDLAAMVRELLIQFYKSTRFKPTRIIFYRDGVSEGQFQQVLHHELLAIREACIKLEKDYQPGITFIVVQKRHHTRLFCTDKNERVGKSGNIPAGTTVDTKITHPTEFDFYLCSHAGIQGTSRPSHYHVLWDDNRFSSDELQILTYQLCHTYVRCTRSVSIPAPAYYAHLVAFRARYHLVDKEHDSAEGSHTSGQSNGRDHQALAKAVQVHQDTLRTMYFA

By koff is commonly meant a measure of how fast the partners let go of each other. Broadly, the kon is the second-order rate constant of association. The Kd is a measure of binding affinity in units of concentration. Turning to YQFPEFRVERTPLPSGRKKRRQRRRPPQ (modifications not checked) [TAT-11 decoy peptide (MSI1 peptide 11 with HIV-1 Tat (48-60) cell-penetrating peptide)], in assay [1], the koff was found to be 0.00274 s⁻¹ and the kon was 823 M⁻¹ s⁻¹. In assay [2], the dissociation constant (Kd) stood at 3.33 µM.

Take HSLGGPLIATAFTNGGRKKRRQRRRPPQ (modifications not checked) [TAT-26 decoy peptide (MSI1 peptide 26 with HIV-1 Tat (48-60) cell-penetrating peptide)]: in assay [1], the off-rate constant (koff) is 0.00226 s⁻¹ and the kon is 488 M⁻¹ s⁻¹. Moreover, the dissociation constant (Kd) in assay [3] came out at 4.63 µM.
